Assay results taken from IntAct's records for PubMed 15848184.

B1: Protein EAP1 (Saccharomyces cerevisiae), P36041 (parent)
chain: MELNDPSIISSSQFSGELSDSDTAAATHKSQQAISNLFQKLAKKGREEKPIGSVESSTDSSNISVATSGNNKESNKKKNKKTAMLNFSSLTDPITNYKPMDLQYKTYAYSMNELYHLKPSLASASYEEDPLISELVRSLPKRKFWRLRMGPPDQKHANNHHFNGNNGGGSWKAGYKNGKNDERRMSRTKNMQGGKRRSQQDDEEKKIDQEMLEMDKNLQLGGDVGHSIADFEDWKAKMKELELKKLSKSKGISNSTAIAPRESASHETPTDLRPVIPRGPSSITDFLNLKRQDKKEESSQQTPGIPVGQPSLSKTSIEQVNELETNSDLGKSSSSRFSSFFNKSATSLPSLDNNNQVPSSNVSVVNNDGNSTPHQSGSRLMSFFKESRSSTPNAESQLLSASDKDNGKMQTLPQFQQQPQQMQPMAFTQHPPNNNAFFNGLLNKGKSETSTPPPPPPGLIAHQGPQFPVMGVPPNFPQRMMPPPPGLVQFQKDSKDVNKKEDRQLRQNKNPNGTRNSKGKQEETATPDLPQQQYMPPPPPPGFFPMHPNFPNGPMPPLPQGFPIPPNGMLPVTGQQPQPPYPNMMLQGNFPPNFQQGFGSNSPMPIPSIINANGKNVTNQLPPGLNSKKNIK
partner: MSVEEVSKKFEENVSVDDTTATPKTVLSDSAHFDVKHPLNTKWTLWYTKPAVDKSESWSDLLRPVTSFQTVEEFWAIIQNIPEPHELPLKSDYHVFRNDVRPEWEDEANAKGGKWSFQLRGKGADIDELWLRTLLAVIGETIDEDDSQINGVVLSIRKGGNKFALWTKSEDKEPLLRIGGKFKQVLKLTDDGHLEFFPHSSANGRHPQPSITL

Variants of: B1
Conditions: with if4e_yeast CDC33, P07260

effect of a mutation on the interaction | Variant
disrupting interaction | Y109A;L114A
disrupting interaction | Y109A
